Assay results: patent publication US20030157688A1 (Scripps Research, published 2003)

T1: wild-type adenovirus type 5 (Ad5) fiber protein (human adenovirus type 5, UniProt P11818 1-581)
T1 construct: also called type 5 fiber protein; recombinant Ad5 fiber
T1 sequence: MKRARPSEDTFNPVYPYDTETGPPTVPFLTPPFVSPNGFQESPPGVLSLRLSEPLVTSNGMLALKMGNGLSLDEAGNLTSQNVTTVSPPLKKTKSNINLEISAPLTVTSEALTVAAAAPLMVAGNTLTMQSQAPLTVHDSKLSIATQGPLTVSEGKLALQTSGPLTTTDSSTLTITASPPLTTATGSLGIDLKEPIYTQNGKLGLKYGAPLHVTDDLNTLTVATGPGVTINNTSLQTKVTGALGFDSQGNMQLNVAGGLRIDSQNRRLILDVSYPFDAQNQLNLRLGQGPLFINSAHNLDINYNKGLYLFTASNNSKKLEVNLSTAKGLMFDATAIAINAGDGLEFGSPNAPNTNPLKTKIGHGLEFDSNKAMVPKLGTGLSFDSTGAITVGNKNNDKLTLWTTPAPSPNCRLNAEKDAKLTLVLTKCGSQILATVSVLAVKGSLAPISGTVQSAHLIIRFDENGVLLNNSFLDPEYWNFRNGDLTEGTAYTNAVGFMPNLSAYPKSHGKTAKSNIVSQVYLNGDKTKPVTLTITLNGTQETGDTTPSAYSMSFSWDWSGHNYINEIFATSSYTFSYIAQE

B1: Ad5 penton base protein (in the capsid of Ad5.βgal.ΔF / Ad5 vector particles) (other)
chain: MRRAAMYEEGPPPSYESVVSAAPVAAALGSPFDAPLDPPFVPPRYLRPTGGRNSIRYSELAPLFDTTRVYLVDNKSTDVASLNYQNDHSNFLTTVIQNNDYSPGEASTQTINLDDRSHWGGDLKTILHTNMPNVNEFMFTNKFKARVMVSRLPTKDNQVELKYEWVEFTLPEGNYSETMTIDLMNNAIVEHYLKVGRQNGVLESDIGVKFDTRNFRLGFDPVTGLVMPGVYTNEAFHPDIILLPGCGVDFTHSRLSNLLGIRKRQPFQEGFRITYDDLEGGNIPALLDVDAYQASLKDDTEQGGGGAGGSNSSGSGAEENSNAAAAAMQPVEDMNDHAIRGDTFATRAEEKRAEAEAAAEAAAPAAQPEVEKPQKKPVIKPLTEDSKKRSYNLISNDSTFTQYRSWYLAYNYGDPQTGIRSWTLLCTPDVTCGSEQVYWSLPDMMQDPVTFRSTRQISNFPVVGAELLPVHSKSFYNDQAVYSQLIRQFTSLTHVFNRFPENQILARPPAPTITTVSENVPALTDHGTLPLRNSIGGVQRVTITDARRRTCPYVYKALGIVSPRVLSSRTF
notes: The assays used whole virions; also called fiberless adenovector (penton base at the vertices)
B2: chimeric 5T3H fiber protein (Ad5 fiber tail and shaft with the Ad3 fiber knob) (other)
chain: MKRARPSEDTFNPVYPYDTETGPPTVPFLTPPFVSPNGFQESPPGVLSLRLSEPLVTSNGMLALKMGNGLSLDEAGNLTSQNVTTVSPPLKKTKSNINLEISAPLTVTSEALTVAAAAPLMVAGNTLTMQSQAPLTVHDSKLSIATQGPLTVSEGKLALQTSGPLTTTDSSTLTITASPPLTTATGSLGIDLKEPIYTQNGKLGLKYGAPLHVTDDLNTLTVATGPGVTINNTSLQTKVTGALGFDSQGNMQLNVAGGLRIDSQNRRLILDVSYPFDAQNQLNLRLGQGPLFINSAHNLDINYNKGLYLFTASNNSKKLEVNLSTAKGLMFDATAIAINAGDGLEFGSPNAPNTNPLKTKIGHGLEFDSNKAMVPKLGTGLSFDSTGAITVGNKNNDKLTLWTGPKPEANCIIEYGKQNPDSKLTLILVKNGGIVNGYVTLMGASDYVNTLFKNKNVSINVELYFDATGHILPDSSSLKTDLELKYKQTADFSARGFMPSTTAYPFVLPNAGTHNENYIFGQCYYKASDGALFPLEVTVMLNKRLPDSRTSYVMTFLWSLNAGLAPETTQATLITSPFTFSYIREDD

What was measured:
[1] = biological target: B2; assay: fiber-deleted vector grown in 644 cells
[2] = biological target: T1, wild-type adenovirus type 5 (Ad5) fiber …; assay: Western blot of particles purified from 633 cells
Ad3 receptor = assay: cell-based or functional assay

Binder	binding result [1]	binding result [2]	infection of EBV-transformed lymphoblastoid cell lines (X-gal stained cells) (Ad3 receptor)
B1	binds	binds	
B2			≥ 10 fold
